PMC2148133

Biological target: Xklp2 (Xenopus kinesin-like protein 2), endogenous full-length protein (Xenopus (endogenous in Xenopus egg extract)) (UniProt Q91785)
Assay: SEC + other: sucrose gradient centrifugation

## Xklp2 (Xenopus kinesin-like protein 2), endogenous full-length protein (from UniProt Q91785 1-1388) (natural protein)
  stoichiometry N: 2
